The target in this experiment is T1, immobilized OSM (Homo sapiens, UniProt P13725).
T1 construct: purchased R&D Systems 671-GP
T1 sequence (P13725 26-212 limits assumed): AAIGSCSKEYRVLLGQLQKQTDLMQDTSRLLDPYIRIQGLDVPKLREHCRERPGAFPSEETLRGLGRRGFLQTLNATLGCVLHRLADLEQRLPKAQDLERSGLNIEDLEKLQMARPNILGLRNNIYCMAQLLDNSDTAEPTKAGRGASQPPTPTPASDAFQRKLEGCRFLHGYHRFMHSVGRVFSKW
Put plainly: SPR binding kinetics of gp130 on immobilized OSM. The note with it: 25 °C. The method, then:
SPR assays were used to investigate the ability of SMI-10B13 to disrupt the binding of the OSM receptor. We began our SPR assays by replicating the gp130-to-immobilized OSM binding kinetic experiment published by Chollangi et al. to evaluate the reliability of our setup. In this experiment, increasing concentrations of gp130 were injected, and the association and dissociation phases were monitored. […] However, the signal generated was insufficient for meaningful results, likely due to the suboptimal availability of accessible binding sites for […], although maximum feasible concentrations of both immobilized and injected gp130 were reached. As a result, we shifted our focus to assess whether SMI-10B13 could influence the recruitment of gp130 to OSM in a surface competition binding assay. […] While this effect could be justified by site II competitive binding at high SMI concentrations, the NMR CSP experiments are indicative of SMI binding at site III (Figure ). […]
SPR experiments were performed on a Reichert SR7000 instrument that was fed by a Surveyor LC autosampler and pump. […] The real-time changes in refractive index units of the association and dissociation phases were monitored. […]

This is an account of results in paper PMC12362618, “Development of the First Small-Molecule Inhibitor Targeting Oncostatin M for Treatment of Breast Cancer” (Journal of Medicinal Chemistry, 2025).

B1: gp130: glycoprotein 130 receptor subunit (R&D Systems, cat. #671-GP) injected over immobilized OSM in SPR (protein)
chain: ELLDPCGYISPESPVVQLHSNFTAVCVLKEKCMDYFHVNANYIVWKTNHFTIPKEQYTIINRTASSVTFTDIASLNIQLTCNILTFGQLEQNVYGITIISGLPPEKPKNLSCIVNEGKKMRCEWDGGRETHLETNFTLKSEWATHKFADCKAKRDTPTSCTVDYSTVYFVNIEVWVEAENALGKVTSDHINFDPVYKVKPNPPHNLSVINSEELSSILKLTWTNPSIKSVIILKYNIQYRTKDASTWSQIPPEDTASTRSSFTVQDLKPFTEYVFRIRCMKEDGKGYWSDWSEEASGITYEDRPSKAPSFWYKIDPSHTQGYRTVQLVWKTLPPFEANGKILDYEVTLTRWKSHLQNYTVNATKLTVNLTNDRYLATLTVRNLVGKSDAAVLTIPACDFQATHPVMDLKAFPKDNMLWVEWTTPRESVKKYILEWCVLSDKAPCITDWQQEDGTVHRTYLRGNLAESKCYLITVTPVYADGPGSPESIKAYLKQAPPSKGPTVRTKKVGKNEAVLEWDQLPVDVQNGFIRNYTIFYRTIIGNETAVNVDSSHTEYTLSSLTSDTLYMVRMAAYTDEGGKDGPEFTFTTPKFAQGEIE
As a reminder, the Kd is a measure of binding affinity in units of concentration. For B1, binding was characterised by a dissociation constant (Kd) of 20.5 nM.
